{"source": "patent US20200157236A1", "about": "(CELLDEX THERAPEUTICS, published 2020)", "binders": {"B1": {"name": "Ab320 (antibody, V domains shown)", "VH": "QVQLQQSGAELVKPGASVKISCKASGYAFSSYWMNWVKQRPGKGLEWIGQIYPGDGDTNYNGKFKGKATLTADKSSSTAYMQLSSLTSEDSAVYFCASYYYGSKAYWGQGTLVTVSA", "VL": "DIQMTQSPASLAASVGETVTITCRASENIYYSLAWYQQKQGKSPQLLIYNANSLEDGVPSRFSGSGSGTQYSMKINSMQPEDTATYFCKQAYDVPFTFGSGTKLEIKR", "notes": "rodent hybridoma mAb"}, "B2": {"name": "Ab323 (antibody, V domains shown)", "VH": "QVQLQQSGAELVKPGASVKISCKTSGYTFSNYWMNWVKQRPGKGLEWIGQIFPGDADANYNGKFKGKATLTADKSSSAAFMQLSSLTSEDSAVYFCARFSYDGAFAYWGQGTLVTVS", "VL": "DIVMTQSHKFMSTSVGDRVSITCKASQDVSTAVAWYQQKPGQSPKPLIYWASTRHTGVPDRFTGSGSGTDYTLTISSVQTEDLALYYCQQHYSTPRTFGGGTKLEIKR", "notes": "rodent hybridoma mAb"}, "B3": {"name": "Ab326 (antibody, V domains shown)", "VH": "QVQLQQSGAELAKPGASVKLSCKASGYTFTSYWMHWVKQRPGQGLEWIGYIKPSSGYTKYNQKFKDKATLTADKSSSTAYMQLSSLTYEDSAVYYCARDYYGSSSWFAYWGQGTLVTVSA", "VL": "DIVMTQSQRFMSTSVGDRVSVTCKASQNVGTNVAWYQQKPGQSPKALIYSASYRYSGVPDRFTGSGSGTDFTLTISNVQSEDLAEYFCQQYNSYPYMYTFGGGTKLEIKR", "notes": "rodent hybridoma mAb"}, "B4": {"name": "Ab328 (antibody, V domains shown)", "VH": "B3 VH with K52N, Y88F", "VL": "B3 VL with R9K, Q42H, Q90R, Y98F", "notes": "rodent hybridoma mAb"}, "B5": {"name": "Ab322 (antibody, V domains shown)", "VH": "B3 VH with S31N, K52N", "VL": "B3 VL with I75V", "notes": "rodent hybridoma mAb"}, "B6": {"name": "Ab332 (antibody, V domains shown)", "VH": "EVQLQQSGPELVKPGTSVKISCKASGYTFTDYYMNWMKQSHGKSLEWIGDINPNNGVTSYNQKFKGKATLTVDKSSSTAYMELRSLTSEDSAVYYCAREDYGSNYFDYWGQGTTLTVSS", "VL": "DIVLTQSPASLAVSLGQRATISCKASQSVDYDGDSYMNWYQQKPGQPPKLLIYAASNLESGIPARLSGSGSGTDFTLNIHPVEEEDAATYYCQQSNEDPPTFGGGTKLEIRR", "notes": "rodent hybridoma mAb"}, "B7": {"name": "Ab329 (antibody, V domains shown)", "VH": "QVQLKESGPGLVKPSATLSLTCTVSGFSLTSYHVCWIRQTPGKGLEWMGVIWGDGRTTYNPPLKSRLSISRDTSKSQVFLKMSSLKTEDTATYYCARATMTGHGDAWGQGASVTVSS", "VL": "DIQMTQSPASLSASLEEIVTITCQASQDIDNYLSWYQQKPGKSPHLLIHSATSLADGVPSRFSGGRSGTQFSLKINRLQVEDTGIYYCLQHYSGWTFGGGTKLELKR", "notes": "rodent hybridoma mAb"}, "B8": {"name": "Ab325 (antibody, V domains shown)", "VH": "QVQLQQSGAELVKPGASVKISCKASGYAFSSYWMNWVKQRPGKGLEWIGQIYPGDGDTNYNGKFKGKATLTADKSSSTAYMQLSSLTSEDSAVYFCARWYYGSYYAMDYWGQGTSVTVSS", "VL": "DIQMTQTTSSLSASLGDRVTISCRASQDISNYLNWYQQKPDGTVKLLIYYTSRLHSGVPSRFSGSGSGTDYSLTISNLEQEDIATYFCQQGNTLPRTFGGGTKLEIKR", "notes": "rodent hybridoma mAb"}, "B9": {"name": "Ab327 (antibody, V domains shown)", "VH": "DVKLVESGEGLVKPGGSLKLSCAASGFTFSSYAMSWVRQTPEKRLEWVTYISSGGDYIYYADTVKGRFTISRDNARNTLYLQMSSLKSEDTAMYYCTRERIWLRRFFDVWGTGTTVTVSS", "VL": "DIVMTQSQKFMSTSVGDRVSITCKASQNVGTAVAWYQLKPGQSPKLLIYSASNRFTGVPDRFTGSGSGTDFTLTISNMQSEDLADYFCQQYSSYPLTFGSGTKLEIKR", "notes": "rodent hybridoma mAb"}, "B10": {"name": "Ab330 (antibody, V domains shown)", "VH": "EVQVVETGGGVVQPGKSLEITCATSGLTFSTAWMYWVRQSSDRRLEWIARIKDKSNKFASDYVESVRGRFTISRDDSRSSVYLQMNNLKEEDTATYYCTTSYGYAWGQGVMVTVSS", "VL": "DIQMTQSPSSMSASLGDRVTITCQASQDIGNYLIWFQQKPGKSPRPLIYYATNLANGVPSRFSGSRSGSEYSLTITSLESEDMADYHCLQYKQHLTFGSGTKLEIER", "notes": "rodent hybridoma mAb"}, "B11": {"name": "Ab331 (antibody, V domains shown)", "VH": "B10 VH with K57N", "VL": "B10 VL with V19I", "notes": "rodent hybridoma mAb"}, "B12": {"name": "Ab352 (antibody, V domains shown)", "VH": "EVQLVQSGPEVKKPGTSVKLSCKASGYTFTSYWMHWVRQARGQRLEWIGYIKPSSGYTKYNQKFKDRATLTADKSTSTAYMELSSLRSEDTAVYYCARDYYGSSSWFAYWGQGTLVTVSS", "VL": "EIVMTQSPAFLSVTPGEKVTITCKASQNVGTNVAWYQQKPDQAPKALIYSASYRYSGVPSRFSGSGSGTDFTLTISSLEAEDAATYYCQQYNSYPYMYTFGQGTKLEIK", "notes": "humanized"}, "B13": {"name": "Ab355 (antibody, V domains shown)", "VH": "B12 VH with E1Q, P9A, K12A, T16A, R38K, R41P, R44G, R67K, S84R, E89D", "VL": "B12 VL", "notes": "humanized"}, "B14": {"name": "Ab400 (antibody, V domains shown)", "VH": "B12 VH", "VL": "EIVMTQSQATMSTSVGERATLSCKASQNVGTNVAWYQQKPGQSPKALIYSASYRYSGVPARFSGSGSGTDFTLTISSVEPEDFAVYYCQQYNSYPYMYTFGQGTKLEIK", "notes": "humanized"}, "B15": {"name": "Ab402 (antibody, V domains shown)", "VH": "B12 VH with P9A, N61A, K65Q, D66E, A68V", "VL": "B14 VL", "notes": "humanized"}, "B16": {"name": "Ab403 (antibody, V domains shown)", "VH": "B12 VH with E1Q, P9A, K12A, T16A, R38K, R41P, R44G, R67K, S84R, E89D", "VL": "B14 VL", "notes": "humanized"}}, "note": "Residue numbers refer to the chain shown, from its start."}
{"molecular_target": "T1, human ALK on the surface of NB1 cells (human, UniProt Q9UM73 21-1620)", "T1 construct": "ALK of NB1 cells; also called cell surface hALK; NB1 (human)", "T1 sequence (Q9UM73 21-1620)": "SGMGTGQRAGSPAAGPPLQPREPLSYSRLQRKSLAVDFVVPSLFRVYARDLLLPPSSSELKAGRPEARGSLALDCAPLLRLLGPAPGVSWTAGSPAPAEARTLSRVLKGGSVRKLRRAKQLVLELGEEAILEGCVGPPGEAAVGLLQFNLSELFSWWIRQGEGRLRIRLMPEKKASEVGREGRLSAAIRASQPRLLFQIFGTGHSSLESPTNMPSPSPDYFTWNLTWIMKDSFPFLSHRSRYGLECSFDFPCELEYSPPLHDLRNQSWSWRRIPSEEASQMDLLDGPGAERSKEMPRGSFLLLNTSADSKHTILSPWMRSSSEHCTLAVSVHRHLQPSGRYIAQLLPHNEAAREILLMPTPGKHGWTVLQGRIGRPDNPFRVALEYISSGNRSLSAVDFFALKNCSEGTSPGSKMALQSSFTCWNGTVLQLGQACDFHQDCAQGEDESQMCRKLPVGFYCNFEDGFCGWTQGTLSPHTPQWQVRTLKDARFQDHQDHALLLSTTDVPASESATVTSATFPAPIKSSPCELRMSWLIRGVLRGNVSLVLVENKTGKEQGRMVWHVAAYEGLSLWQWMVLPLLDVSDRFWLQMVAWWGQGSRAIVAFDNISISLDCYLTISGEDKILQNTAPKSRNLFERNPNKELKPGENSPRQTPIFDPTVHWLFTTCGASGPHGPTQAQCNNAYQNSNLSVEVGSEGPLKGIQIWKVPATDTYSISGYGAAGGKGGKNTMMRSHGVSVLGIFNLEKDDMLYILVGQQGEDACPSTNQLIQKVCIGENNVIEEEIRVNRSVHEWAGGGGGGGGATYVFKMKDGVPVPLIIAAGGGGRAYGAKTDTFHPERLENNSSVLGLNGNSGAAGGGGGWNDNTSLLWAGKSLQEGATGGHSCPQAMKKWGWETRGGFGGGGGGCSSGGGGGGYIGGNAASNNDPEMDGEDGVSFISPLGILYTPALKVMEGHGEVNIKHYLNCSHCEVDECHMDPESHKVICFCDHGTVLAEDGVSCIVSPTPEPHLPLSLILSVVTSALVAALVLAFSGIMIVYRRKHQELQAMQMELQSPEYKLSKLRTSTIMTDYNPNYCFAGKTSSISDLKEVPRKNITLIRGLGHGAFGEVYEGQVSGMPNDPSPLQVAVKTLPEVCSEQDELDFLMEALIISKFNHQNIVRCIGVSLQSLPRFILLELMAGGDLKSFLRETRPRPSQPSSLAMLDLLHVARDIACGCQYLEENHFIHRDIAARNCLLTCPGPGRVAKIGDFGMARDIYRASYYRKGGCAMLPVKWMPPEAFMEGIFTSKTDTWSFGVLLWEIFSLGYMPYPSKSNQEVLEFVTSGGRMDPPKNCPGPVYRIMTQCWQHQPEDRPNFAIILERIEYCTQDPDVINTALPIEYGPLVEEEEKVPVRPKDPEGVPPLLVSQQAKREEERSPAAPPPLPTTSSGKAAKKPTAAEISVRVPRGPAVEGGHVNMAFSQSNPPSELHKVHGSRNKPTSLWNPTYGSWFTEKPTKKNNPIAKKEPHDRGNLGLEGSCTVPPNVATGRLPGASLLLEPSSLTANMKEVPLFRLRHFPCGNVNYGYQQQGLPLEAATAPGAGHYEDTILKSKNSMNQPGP", "test": "flow cytometry titration on NB1 cells, steady state", "method": "KD was determined by flow cytometry. Titration of each antibody on NB1 cells for 2-4 hours at 4° C. was followed by incubation with a fluorescently-labeled secondary antibody. The normalized mean fluorescent intensity […] shown as “% Max binding” was plotted as a function of antibody concentration.\nFlow cytometry was utilized to measure the affinity at steady state (KD) with which different ALK antibodies bind to ALK on the surface of NB1 cells (FIG. 3). Titration of each antibody on NB1 cells for 2-4 hours at 4° C. was followed by incubation with a fluorescently-labeled secondary antibody. The normalized mean fluorescent intensity (MFI) shown as “% Max binding” was plotted as a function of antibody concentration. The data were fit to a one site binding isotherm using GraphPad Prism, from which affinity values were derived.", "units": {"Kd": "nM"}}
{"binder": "B1", "Kd": 0.35}
{"binder": "B2", "Kd": 0.08}
{"binder": "B3", "Kd": 0.35}
{"binder": "B4", "Kd": 0.5}
{"binder": "B5", "Kd": 0.5}
{"binder": "B6", "Kd": 1.55}
{"binder": "B7", "Kd": 0.34}
{"binder": "B8", "Kd": 0.1}
{"binder": "B9", "Kd": 0.4}
{"binder": "B10", "Kd": 3.13}
{"binder": "B11", "Kd": 2.5}
{"molecular_target": "T2, purified ALK protein (BLitz, Table 20) (Homo sapiens (Human), UniProt Q9UM73 19-1038, limits assumed)", "T2 construct": "also called purified ALK proteins", "test": "BLI (BLitz), mAb on Protein A tip, purified ALK in solution", "in_short": "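Humanized anti-ALK mAbs loaded at 0.5 mg/mL on Protein A tips; after stable baseline, purified ALK protein at 70 μg/mL added. Kinetic traces fit to a single binding site model to give monovalent KD.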", "units": {"Kd": "nM"}}
{"binder": "B12", "Kd": 77.2}
{"binder": "B13", "Kd": 86.5}
{"molecular_target": "T3, murine ALK (Table 18, 'mouse ALK binding') (mouse, UniProt P97793 19-1042, limits assumed)", "T3 construct": "either purified mouse ALK antigen coated in ELISA or endogenous ALK on Neuro-2a cells", "T3 sequence (P97793 19-1042 limits assumed)": "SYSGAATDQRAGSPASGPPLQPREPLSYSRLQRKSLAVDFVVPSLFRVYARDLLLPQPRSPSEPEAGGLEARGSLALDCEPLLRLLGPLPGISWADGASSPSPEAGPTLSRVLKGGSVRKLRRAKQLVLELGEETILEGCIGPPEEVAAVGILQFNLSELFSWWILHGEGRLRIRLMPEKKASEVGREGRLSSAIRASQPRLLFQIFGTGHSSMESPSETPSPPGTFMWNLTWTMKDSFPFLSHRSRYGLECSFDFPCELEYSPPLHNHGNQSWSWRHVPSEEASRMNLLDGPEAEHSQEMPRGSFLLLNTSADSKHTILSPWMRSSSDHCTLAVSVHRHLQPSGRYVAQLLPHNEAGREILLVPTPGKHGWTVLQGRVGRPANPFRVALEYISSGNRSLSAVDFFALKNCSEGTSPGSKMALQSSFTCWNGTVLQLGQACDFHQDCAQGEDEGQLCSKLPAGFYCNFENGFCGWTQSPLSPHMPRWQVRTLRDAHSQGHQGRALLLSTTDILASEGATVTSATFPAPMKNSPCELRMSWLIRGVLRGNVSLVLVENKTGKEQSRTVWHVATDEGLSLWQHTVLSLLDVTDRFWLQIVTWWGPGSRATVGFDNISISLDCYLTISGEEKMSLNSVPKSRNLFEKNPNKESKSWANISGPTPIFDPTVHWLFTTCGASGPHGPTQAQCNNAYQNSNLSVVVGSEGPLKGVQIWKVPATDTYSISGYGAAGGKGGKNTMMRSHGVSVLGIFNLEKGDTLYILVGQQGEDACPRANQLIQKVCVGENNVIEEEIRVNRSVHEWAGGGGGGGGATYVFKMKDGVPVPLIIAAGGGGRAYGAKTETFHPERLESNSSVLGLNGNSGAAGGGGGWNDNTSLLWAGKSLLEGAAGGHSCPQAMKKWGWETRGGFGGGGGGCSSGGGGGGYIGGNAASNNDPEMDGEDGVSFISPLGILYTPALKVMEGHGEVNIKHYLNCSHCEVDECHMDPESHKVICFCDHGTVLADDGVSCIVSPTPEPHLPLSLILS", "test": "ELISA on purified mouse ALK or flow cytometry on Neuro-2a cells", "method": "Purified mAbs were evaluated for their ability to bind murine ALK by solid-state ELISA, or flow cytometry on Neuro-2a cells that express low levels of endogenous murine ALK.\nLuminescence data were plotted as a function of the log-transformed anti-ALK antibody concentration and fit to a 4-parameter non-linear regression equation.\nAlternatively, Neuro-2a cells were incubated with 10-100 nM of anti-ALK antibodies, followed by a fluorescently-labeled secondary antibody. Mean fluorescence intensity (MFI) of live-gated cells treated with anti-ALK antibodies was divided by background, determined using the secondary antibody alone."}
{"binder": "B5", "binding result": "no binding"}
{"binder": "B11", "binding result": "no binding"}
{"molecular_target": "human ALK, purified (hALK) (human, UniProt Q9UM73 19-1038, limits assumed)", "sequence (Q9UM73 other isoform, or with tags, fused parts or gaps limits assumed)": "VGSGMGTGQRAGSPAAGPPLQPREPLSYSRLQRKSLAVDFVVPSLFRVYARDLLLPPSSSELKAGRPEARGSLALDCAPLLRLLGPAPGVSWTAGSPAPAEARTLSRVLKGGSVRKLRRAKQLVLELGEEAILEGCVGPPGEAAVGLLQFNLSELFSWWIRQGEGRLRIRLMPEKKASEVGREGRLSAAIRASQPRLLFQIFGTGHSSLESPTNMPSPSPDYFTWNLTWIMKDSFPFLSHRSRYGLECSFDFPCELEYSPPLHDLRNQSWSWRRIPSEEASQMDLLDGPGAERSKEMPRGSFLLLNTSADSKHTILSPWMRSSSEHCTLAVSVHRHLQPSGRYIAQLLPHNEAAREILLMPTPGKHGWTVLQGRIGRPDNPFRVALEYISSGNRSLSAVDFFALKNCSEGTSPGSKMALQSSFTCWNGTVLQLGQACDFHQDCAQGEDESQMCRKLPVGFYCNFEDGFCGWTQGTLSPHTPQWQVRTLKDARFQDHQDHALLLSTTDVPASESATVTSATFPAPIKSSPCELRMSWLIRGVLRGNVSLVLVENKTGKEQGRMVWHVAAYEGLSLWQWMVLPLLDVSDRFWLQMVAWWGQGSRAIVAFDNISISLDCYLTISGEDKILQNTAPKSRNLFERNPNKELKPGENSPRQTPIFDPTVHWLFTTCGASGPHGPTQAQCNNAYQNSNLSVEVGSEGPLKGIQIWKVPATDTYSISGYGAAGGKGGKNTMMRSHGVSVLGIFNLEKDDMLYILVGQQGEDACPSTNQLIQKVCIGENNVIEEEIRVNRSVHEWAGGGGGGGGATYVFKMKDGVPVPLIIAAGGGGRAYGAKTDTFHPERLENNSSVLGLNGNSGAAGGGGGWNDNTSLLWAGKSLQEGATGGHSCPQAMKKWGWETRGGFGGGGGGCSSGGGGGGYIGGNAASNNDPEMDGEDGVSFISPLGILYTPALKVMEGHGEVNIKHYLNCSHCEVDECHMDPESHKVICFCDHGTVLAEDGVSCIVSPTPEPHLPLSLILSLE", "test": "BLI (BLitz), estimated monovalent affinity, single dose kinetics", "method": "(§1) Kinetic measurements of the monovalent affinity of the 96 humanized ALK antibody variants (Ab351-Ab446) were collected. Affinity ranking was performed using a BLitz® System (ForteBio, Menlo Park, Calif.). Humanized anti-ALK antibodies were immobilized at 0.5 mg/mL using Protein A tips. Once baseline stability was ensured, purified ALK proteins at 70 μg/mL were added. The resulting kinetic data were fit to a single binding site equation, from which the quoted monovalent KD values were derived.\n(§2) KD values for both NB1 (human) cells and Neuro2a (mouse) cells were also determined.", "units": {"Kd": "nM"}}
{"binder": "B3", "Kd": 69}
{"binder": "B12", "Kd": 105}
{"binder": "B13", "Kd": 103}
{"molecular_target": "mouse ALK, purified (mALK) (mouse, UniProt P97793 19-1042)", "sequence (P97793 19-1042 limits assumed)": "as the sequence (P97793 19-1042 limits assumed) above", "test": "BLI (BLitz), estimated monovalent affinity, single dose kinetics", "method": "as §1, §2", "units": {"Kd": "nM"}}
{"binder": "B3", "Kd": 120}
{"binder": "B12", "Kd": 205}
{"binder": "B13", "Kd": 150}
{"molecular_target": "rat ALK, purified (rALK) (rat, UniProt P97793 19-1038 (mouse entry), limits assumed)", "sequence (P97793 other isoform, or with tags, fused parts or gaps limits assumed)": "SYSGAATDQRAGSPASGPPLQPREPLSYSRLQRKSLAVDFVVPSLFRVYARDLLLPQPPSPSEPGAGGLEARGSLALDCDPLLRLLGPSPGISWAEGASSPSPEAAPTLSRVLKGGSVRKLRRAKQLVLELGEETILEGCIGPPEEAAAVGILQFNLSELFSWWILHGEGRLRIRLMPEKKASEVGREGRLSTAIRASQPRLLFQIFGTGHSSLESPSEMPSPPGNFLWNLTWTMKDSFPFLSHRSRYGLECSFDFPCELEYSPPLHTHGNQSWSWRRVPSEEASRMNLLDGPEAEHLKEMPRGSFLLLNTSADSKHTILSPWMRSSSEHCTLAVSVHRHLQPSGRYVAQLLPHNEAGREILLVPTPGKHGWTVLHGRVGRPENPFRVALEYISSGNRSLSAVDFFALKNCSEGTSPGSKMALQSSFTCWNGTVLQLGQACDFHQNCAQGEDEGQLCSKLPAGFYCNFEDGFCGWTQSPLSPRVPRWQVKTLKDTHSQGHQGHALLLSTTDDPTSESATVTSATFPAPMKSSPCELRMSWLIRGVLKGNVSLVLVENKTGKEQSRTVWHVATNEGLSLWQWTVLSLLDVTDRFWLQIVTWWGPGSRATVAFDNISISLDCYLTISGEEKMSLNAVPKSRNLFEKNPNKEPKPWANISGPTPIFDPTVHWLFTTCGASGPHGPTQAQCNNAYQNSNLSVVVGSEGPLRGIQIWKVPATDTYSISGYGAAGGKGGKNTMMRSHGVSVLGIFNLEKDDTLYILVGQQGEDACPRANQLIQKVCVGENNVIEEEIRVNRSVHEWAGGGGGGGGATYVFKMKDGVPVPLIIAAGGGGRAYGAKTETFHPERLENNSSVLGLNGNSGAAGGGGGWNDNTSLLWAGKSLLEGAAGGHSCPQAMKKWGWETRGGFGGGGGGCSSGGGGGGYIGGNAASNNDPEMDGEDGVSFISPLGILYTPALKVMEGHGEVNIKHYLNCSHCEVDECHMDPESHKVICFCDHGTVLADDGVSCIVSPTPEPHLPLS", "test": "BLI (BLitz), estimated monovalent affinity, single dose kinetics", "method": "as §1, §2", "units": {"Kd": "nM"}}
{"binder": "B3", "Kd": 35}
{"binder": "B12", "Kd": 24}
{"binder": "B14", "Kd": 18}
{"binder": "B15", "Kd": 24}
{"binder": "B16", "Kd": 22}
{"binder": "B13", "Kd": 31}
